Test results taken from the DeepSol protein solubility set.

Experiment: soluble on expression in E. coli; label from the status in PepcDB or PDB records

## MGSSHHHHHHSSGLVPRGSHMAHQDALPRLPVPPLQQSLDYYLKALQPIVSEEEWAHTKQLVDEFQTSGGVGERLQKGLERRAKKMENWLSEWWLKTAYLQFRQPVVIYSSPGVILPKQDFVDLQGQLRFAAKLIEGVLDFKSMIDNETLPVEFLGGQPLCMNQYYQILSSCRVPGPKQDSVVNFLKSKRPPTHITVVHNYQFFELDVYHSDGTPLTSDQIFVQLEKIWNSSLQSNKEPVGILTSNHRNTWAKAYNNLIKDKVNRESVNSIQKSIFTVCLDKQVPRVSDDVYRNHVAGQMLHGGGSKFNSGNRWFDKTLQFIVAEDGSCGMVYEHAAAEGPPIVALVDHVMEYTKKPELVRSPMVPLPMPKKLRFNITPEIKNDIEKAKQNLSIMIQDLDIMMLTFHHFGKDFPKSEKLSPDAFIQVALQLAYYRIYGQACATYESASLRMFHLGRTDTIRSASIDSLAFVKGMGDSTVPEQQKVELLRKAVQAHRAYTDRAIRGEAFDRHLLGLKLQAIEDLVSMPDIFMDTSYAIAMHFNLSTSQVPAKTDCVMAFGPVVPDGYGICYNPMEAHINFSVSAYNSCAETNAARMAHYLEKALLDMRTLLQNHPRAKL
  soluble on expression in E. coli: soluble

## MSLKVPGIRNYDGPAGGWGALKATATAVREQMDTLKAPLTLMRTNQPDGFDCPGCAWPDKEHKSTFQFCENGAKAVTWEATNKRVTPAFFAQHPVTSLLQRSDYELEDLGRLTEPLVYDRASDTFKPVAWQDAFARIGEILRSLQPEQVEFYTSGRASNEAAYLYQLFAREYGCNNFPDCSNMCHEPTSVGLPRSIGIGKGTVSLEDFDLCELIISIGHNPGTNHPRMMGTLHEASRRKVPIMVFNPLRERALERFADPQNMVEMATYGSTRIASSYFQVKAGGDAAAIKGIMKALLALEDSLGQVLDQAFIAEHTQGFEALAADLHATAWADIEQASGLHQADLEMVAAAYAKSNATIVTYGMGITQHNEGTANVRLICDLLMLRGNLGKPGAGICPLRGHSNVQGNRTVGITEKPSPAFLDKLQQTFGFTPPAHHGHDAVQAMQAMIAGSAKALLCLGGNFAVALPDPGQCFPAMGKLDLSVHIATKLNRSHLLVARETFLFPCLGRTELDMQDGLRQAITVEDSMSMVHASAGKLAPASEFLLSEPAIVAGMARATLPGSRVPWLELVADYDKIRDLIEQTVPGFDDYNARIRVPGGFRMPLAAAERQWLTPSGKAEFFVFPGLHEDKEVDGADVLRLITLRSHDQYNTTIYALDDRYRGVFGRRDVLFISPADLAARGLAHGDLVDIETVIGGRRLRYEKITAIEYKIANGTVGAYYPEANRLVPLDYLDVDSGTPSYKSVPVRVLRSSPAEGHHHHHH
  soluble on expression in E. coli: soluble

## AHHHHHHGSKLTHVDEKGVKMVEVGHKKDMYRRAIAKGRIKLKPETIKLIREGKIEKGNVLAAAQIAGILAVKKTFDIIPLCHPIPLTGVDITFDFGEDYIEVTCEVRAIYKTGVEMEALTGVSVALLTIWDMVKAVEKDEKGQYPYTKIEEIRVVEKIKEERS
  soluble on expression in E. coli: soluble

## MGSDKIHHHHHHMHHESPIRRRKTRQIHVGKVAIGGDAPISVQSMTNTETRDIAATVAQIRRLEAVGADIVRISVPSMDAAEAFKTIRAQVETPLVADIHFDHRIALQVMEDGVDGLRINPGNIGSLDKTRLVVEMAKDKGIPIRIGVNAGSLEKDIQEKYGEPTPEALVESALRHVSILDELNFHDVKISVKASDIFLAVSAYRLLSEKVDYPLHLGITEAGGLRSGTVKSAIGLGLLLRDGIGDTIRVSLAADPVEEIRVGFDILKSLHLRQKGINLIACPSCSRQEFDVITTINALEARLEDILEPMDVSVIGCVVNGIGEAKEADIGLAGGDKRSILYYRGKQVDRVENNDIVDVLEKRIRAEIAERQATRHEG
  soluble on expression in E. coli: not soluble

## MEFYNSTNEIPEEMLKGIDLTYPQLTYLPETGILYDNTYNEKTVPIISGGGSGHEPAHVGYVGSGMLAAAVTGPLFIPPKSKNILKAIRQVNSGKGVFVIIKNFEADLKEFNEAIKEARTEGIDVRYIVSHDDISVNAYNFHKRHRGVAGTILLHKILGAFAKEGGSIDEIEQLALSLSPEIYTLGVALAPVHFPHQKTSFVLAEDEVSFGIGIHGEPGYRVEKFEGSERIAIELVNKLKAEINWQKKANKNYILLVNGLGSTTLMELYSFQYDVMRLLELEGLSVKFCKVGNLMTSCDMSGISLTLCSVKDPKWLDYLNVPTGAFAWLEHHHHHH
  soluble on expression in E. coli: soluble

## MGHHHHHHSHMVITIYYDVKVRFIVRGCGQYISYRCQEKRNTYFAEYWYQAQCCQYDYCNSWSSPQLQSSLPEPHDRPLALPLSDSQIQWFYQALNLSLPLPNFHAGTEPDGLDPMVTLSLNLGLSFAELRRMYLFLNSSGLLVLPQAGLLTPHPS
  soluble on expression in E. coli: not soluble

## MDMNFFKHDAFSATTMMKAIENYEFQPGLISSLNLFEEVETSTTVVGIERRDNTLSLIQTSERGAPLVEGDRDGRNLRFFKTTRIAKSDTVKSEEIQNRREFGTEDQLETAMKYIARKQKKLISEIELTWENMQLGAVQGVVLDADGSVIVDWYKEWEIAPPKPIDFKLNNETTNVADHVDQVIMKMIEASKGAFSDRSRIIGLCGNEFFSKLKNHKTIRETYLNTALAQTLNSAGGVATPSAIGSGSFGSFDFAGVTFINYRSIHNYNVSAKAGTKRAIGIKPDECQFLPANAPGVFQKTFAPGESLDFANTVGKPLYTMLIVDNDRNAWVKPEVYSYPLYICTRPEMLFKAVSGGK
  soluble on expression in E. coli: not soluble

## MFPQTTMDHILHPTPREGYYVVELNRSVWVVPNYYINLTPIGTGAYGTVCAAECTRSGTRVAIKKFNRPFQSIIHARRTYRELRLLRCMCHENIIDLLDVFTPNENVNDIEDVYFVSMLMGADLSNILKIQRLNDDHIQFLVYQILRGLKYIHSADIIHRDLKPSNIAVNEDCELKILDFGLARQTDSEMTGYVATRWYRAPEIMLNWMHYTQTVDVWSVGCILAELITGKTLFPGSDHIDQLTRIMSVTGTPDEEFLKKISSEEARNYIRNLPKMTRRDFKRLFAQATPQAIDLLEKMLHLDPDRRPTAKEAMEHEYLAAYHDETDEPIAEEMDLNDDVRADTIDEWKKIIWEEISDFQKNVAFADEEEDEEKMES
  soluble on expression in E. coli: not soluble

## MSLAADTPTTCCFSYTSRQIPQNFIADYFETSSQCSKPGVIFLTKRSRQVCADPSEEWVQKYVSDLELSA
  soluble on expression in E. coli: soluble

## MMPNEKITLKQLIDHCFDTTKTTIKQQIVFGAGKIENKNFNIVGTVEDTSFGVDESIEMARCILDIIKNNNTDPIVLLTDVAGQKLAVRDEWLGMYAYFAHLLKCLHLARQNGNKIITLIYNQAIGGSFIAFGMMADRIYALKNAKLAVMWLEGMSKVTKIDIDVLRKISETSPVFAPGVENFKKLGGLHQVLDLDEVSQQLLLTLQEPNISHDNRAELGKQYGGRKEAYDIIKAIENL
  soluble on expression in E. coli: not soluble
